Test: soluble on expression in E. coli; label from the status in PepcDB or PDB records

| Sequence | soluble on expression in E. coli |
| --- | --- |
| MTAHFPFDNSYVALPPNFFARVAPTPVAAPRLIKLNRPLAVQLGLDPDLLETPEGAEILSGNQMPETAASIAMAYAGHQFGNFVPQLGDGRAILLGEVVDRNGVRRDIQLKGAGRTPFSRMGDGRAALGPVLREYIVSEAMAALGIPTTRSLAAVLTGETVLRDPIQPGAVLTRVASSHIRVGTFQYFAARGDLASVRALADHAIARHYPEAAQAPSPYLALLEGVIGRQAELVASWMMVGFIHGVMNTDNCSVAGETIDYGPCAFMDTFDPKTVYSSIDQFGRYAYGNQPPIALWNLTRLAECLVRLLADDDDKGIEIAQTALGGFAEQFNAAYLAKLAAKLGLFTSQPDDQQLSQEFLTALAKGEADFTLAFRRLSDAAVDPSDLGEVRALFADPAAFDEWAPRWRARIATEPQDATTRQAAMRRVNPAYIPRNHRIEAVIRAAVDRDDFAPFEEILTVLANPFEEKAEFARYAEPPQPHEQVLETFCGTAAALEHHHHHH | soluble |
| MTAKMETTFYDDALNASFLPSESGPYGYSNPKILKQSMTLNLADPVGSLKPHLRAKNSDLLTSPDVGLLKLASPELERLIIQSSNGHITTTPTPTQFLCPKNVTDEQEGFAEGFVRALAELHSQNTLPSVTSAAQPVNGAGMVAPAVASVAGGSGSGGFSASLHSEPPVYANLSNFNPGALSSGGGAPSYGAAGLAFPAQPQQQQQPPHHLPQQMPVQHPRLQALKEEPQTVPEMPGETPPLSPIDMESQERIKAERKRMRNRIAASKCRKRKLERIARLEEKVKTLKAQNSELASTANMLREQVAQLKQKVMNHVNSGCQLMLTQQLQTF | soluble |
| MTALFCLELRTNIFLIMNDCIIINYWKGFIFSFHSYFFPFRFESSLRAHYPGKRNYSDFSVIPLPYYIDVRSFHICESQHIIALPLQIPLPYRMLIRMYPV | soluble |
| MTATSDKVLKIQLRSASATVPTKGSATAAGYDIYASQDITIPAMGQGMVSTDISFTVPVGTYGRIAPRSGLAVKNGIQTGAGVVDRDYTGEVKVVLFNHSQRDFAIKKGDRVAQLILEKIVDDAQIVVVDSLEESARGAGGFGSTGN | not soluble |
| MTDAAEEVLLGKKGCTGVITLNRPKFLNALTLNMIRQIYPQLKKWEQDPETFLIIIKGAGGKAFCAGGDIRVISEAEKAKQKIAPVFFREEYMLNNAVGSCQKPYVALIHGITMGGGVGLSVHGQFRVATEKCLFAMPETAIGLFPDVGGGYFLPRLQGKLGYFLALTGFRLKGRDVYRAGIATHFVDSEKLAMLEEDLLALKSPSKENIASVLENYHTESKIDRDKSFILEEHMDKINSCFSANTVEEIIENLQQDGSSFALEQLKVINKMSPTSLKITLRQLMEGSSKTLQEVLTMEYRLSQACMRGHDFHEGVRAVLIDKDQSPKWKPADLKEVTEEDLNNHFKSLGSSDLKFAENLYFQ | soluble |
| MTDDKKIRAAIVGYGNIGRYALQALREAPDFEIAGIVRRNPAEVPFELQPFRVVSDIEQLESVDVALVCSPSREVERTALEILKKGICTADSFDIHDGILALRRSLGDAAGKSGAAAVIASGWDPGSDSVVRTLMQAIVPKGITYTNFGPGMSMGHTVAVKAIDGVKAALSMTIPLGTGVHRRMVYVELLPGHNLEEVSAAIKADEYFVHDETHVIQVDEVDALIDMGHGVRMVRKGVSGSTQNQRMSFDMEINNPALTGQVLVCAARAAMRQQPGAYTLQEIPVIDLLPGDREQWIGKLC | soluble |
| MTDEFKKSTANLKKAVPLMIKNHVAATPANYALWYTYVDKTIPELNFEMDEVLEHYGICPPAANKQLYNNYVASRAETSLEDLKTNVEVLLHEVSSSMSDTLSDTSSFSAMVDKSFNKLEKVEDNSLSIEEVMVVIRQLVAESHEIRHSTKFLNRQLTNASEEISR | not soluble |
| MTDIQDVISPKLAVAIANPIFPAVDSLLRSGRHISTEHLDNHAFLMDFQNELDGFYRRYNVELIRAPEGFFYLRPKATTLIARSVLSELEMLVGKVLCYLYLSPERLAQQGIFSTQEVYDELLNLADEGKLLKAVNQRSSGSDLDKQKLAEKVRAAIGRLRRLGMIQTVGEQNSGKFTISESVFRFGAEVRSGDDPLESQARLIRDGEAATPDSLALEKQAQLMENDTKSADEIDEEFDGEQELEHHHHHH | soluble |
| MTDKTIAFSLLDLAPIPEGSSAREAFSHSLDLARLAEKRGYHRYWLAEHHNMTGIASAATSVLIGYLAANTTTLHLGSGGVMLPNHLPLVIAEQFGTLNTLYPGRIDLGLGRAPGSDQRTMMALRRHMSGDIDNFPRDVAELVDWFDARDPNPHVRPVPGYGEKIPVWLLGSSLYSAQLAAQLGLPFAFASHFAPDMLFQALHLYRSNFKPSARLEKPYAMVCINIIAADSNRDAEFLFTSMQQAFVKLRRGETGQLPPPIQNMDQFWSPSEQYDVQQALSMSLVGDKAKVRHGLQSILRETDADEIMVNGQIFDHQARLHSFELAMDVKEELLG | not soluble |
| MTDLNRTALPSRTDGTVEKTDTLVVGAGQAGVAMSEHLSRLGVPHLVLERNRIAEAWRSGRWDSLVANGPAWHDRFPGMEFDIDPDGFPGKDQVAAYFEAYAKRFDAPIRTGVEVRKVVRNVGRPGFTVDTSAGTIEANRVVAATGPFQRPVIPPIAPRDERIRQIHSAHYYNPQQLPEGAVLVVGAGSSGVQIADELQRAGRQVYLSVGAHDRPPRSYRNRDFCWWLGVLGEWDAEVAKPGREHVTIAVSGARGGHTVDFRALAHQGVTLVGLTESFVDGVATFRPDLAENLARGDENYLALLDAADAYIARNGLDLPEEPEARRRLPDPQCVTDPILELDLAEAGVGSIIWATGYAVDFGWLQVDAFDRDGKPRHQRGVSSEPGVYFIGLPWLSRRGSSFIWGVWHDARHVADHIAIQRKYLAYRDAAQRQEQDRASQAPQTSLQEVS | not soluble |
| MTDPSQMQAEELLSFLEEGGTLKMLHDVSADTIEHIYAVGYNFFQSGKIEQAAKVFQLLSMLDHYQARFFIGLGAARQELGEYLQAIDAYSYAALVDINDPRPPFHSAECHLKLEQLTEAESGFYSAKEMSAGKSQYADLHQRAGIMLEAVRNKRSNLEHHHHHH | soluble |
| MTDQVFGKVSKVVCVGAGYVGGPTCAMIAHKCPHITVTVVDMNTAKIAEWNSDKLPIYEPGLDEIVFAARGRNLFFSSDIPKAIAEADLIFISVNTPTKMYGRGKGMAPDLKYVESVSRTIAQYAGGPKIVVEKSTVPVKAAESIGCILREAQKNNENLKFQVLSNPEFLAEGTAMKDLANPDRVLIGGESSPEGLQAVAELVRIYENWVPRNRIITTNTWSSELSKLVANAFLAQRISSINSISAVCEATGAEISEVAHAVGYDTRIGSKFLQASVGFGGSCFQKDVLSLVYLCESLNLPQVADYWQGVININNWQRRRFADKIIAELFNTVTDKKIAIFGFAFKKNTGDTRESSAIHVIKHLMEEHAKLSVYDPKVQKSQMLNDLASVTSAQDVERLITVESDPYAAARGAHAIVVLTEWDEFVELNYSQIHNDMQHPAAIFDGRLILDQKALREIGFRTFAIGTSPDQAYNLFGTAGY | soluble |
| MTDRGIVFNIQHFSIHDGPGIRTTVFLKGCPLRCPWCANPESQQKAPEQMLTSDGLNTKIVGEEKTVDEVIEEVLKDLDFYEESGGGMTLSGGEIFAQFDFALALLKAAKAAGLHTAIETTAFAKHEQFVTLVDYVDFIYTDLKHYNQLRHQKVTGVRNDLIIKNIHYAFQAGKEIVLRIPVIPQFNDSLDDAKAFSELFNQLEIDQVQLLPFHQFGENKYKLLGREYEMAEVKAYHPEDLADYQAVFLNHNIHCYF | not soluble |
| MTDRYIAFANSPVGRRLVGAVGLPSPLRLERWQAGRVRPVDGPLVIGGSGALAEAVLPFAGKLTDAVFAAVDGQFELPRWTAEHSPRAKAVLFDASGLTRFEQLVALRDFFQPVLKGLDKCPKVVVLGRPPESLKDPVTASVQRSLEGFTRSLGKEIRRGGNVQLLYVGKGAEDQLEGALRFFLSPKSAYVSGQVIRLAANSAQVHDWSKPLAGQRALVTGAARGIGAAIAETLARDGAEVVLLDVPPAREALEGLAARLGGRAVALDICAADAGQQLVEALPEGVDIVVHNAGITRDKTLAKMSSDFWNSVINVNLNAPQVLTQALLDGGKLHDNGRVVLLASISGIAGNLGQSNYAVSKAGLIGLAQAWAPALGKRGITINAVAPGFIETQMTAAIPLTIREAGRRMNSMSQGGLPQDVAETVAWFAQPSSGAVSGQVL | not soluble |
| MTDSKYFTTTKKGEIFELKNELNSDKKEKKKEAVKKVIASMTVGKDVSALFPDVVNCMQTDNVELKKLVYLYLMNYAKSQPDLAIMAVNTFVKDCEDPNPLIRALAVRTMGCIRVEKITEYLCDPLRRCMKDEDPYVRKTAAVCVAKLHDMNPALVKEQGFVELLNDLLSDANPMVVANAVAALTEMNEQQTVIEVNSQMVNKLLTALNECTEWGQVFILDALAGYTPRDERETQNICERISPRLAHANAAVVLSTVKVLMKLIDMMPADSDFITQLTKKLAPPMVTLLSAEPEIQYVALRNINLIVQKRPDILKQEMKVFFVKYNDPIYVKMEKLDIMIRLAQQNNIAQVLSELKEYATEVDVDFVRKSVRAIGRCAIKVEASSERCVQTLLELIQTKVNYVVQEAVVVIKDIFRKYPNRYESIISALCENLDTLDEPEARASMIWIIGEYAERIDNADELLESFVEGFHDENTQVQLQLLTAVVKLFLKRPGVAQALVQRVLSLATQDSDNPDLRDRGFIYWRLLSADPAAAKNVVLTEKPLISEETDLLEPSLLEQLVCHIGTLASVYHKPPSAFIDPAKAPLRQINPIPAAKFGSSLLDTSSTPNAARNGSAAAPTVIPSQDQVIADLLSLDLNAPAASANTGAFGGAMSGTTSMGGLDDLLGLGGDPMPAAPTNSASYNPFDGLGGLGGAAPAAPPSQQPASIGGLAEIFGSGGFGGSSGITYPKELWLDASKAMGMQVEGTFVRRGGKIFMEMTITNRAMQAISGFALQFNKNSFGLIPVEQVNPAPILPNQSQNYTIACDTTGAVQVTTPLTNLQVSCSL | not soluble |
| MTDSTPQGSTPGMSPEAILNGTGKPWEEWLKLLDDVKATSWTHTHIAKHIVDNFDVSGWWAQGIAIGYEYERGMRKPGMTSDGFAANASKTLNLPVEKVWKLFGDDDLRAQWLDPALIEKTSASEPRTFNAKWLADDSRVSVNFTSKGDNKSSFGIQHRRLPDQDSIPVMKAFWKERIAALVEVSKQFSLLEHHHHHH | soluble |
| MTEADYGEMVRREKCIMFVKRFCPYSIRARELLHDRGVGCKIIEVDNNLDAYSFAKRNHSTFPVFFLDGDLVEGGCEKLLVLSDSNLPPFDKSPLLTQNREPVLLD | not soluble |
| MTECLQTKKSNCKNCYKCIRHCPVKSLKFTDGQAHIVRDECVLCGECYVVCPQNAKQIRSDVEKAKQLVLKYDVYASIAPSFVAWFHNKSIHDMEQALIKLGFKGADETAKGAYIVKKQYEKMIEEKKSKIIISSCCHTVNTLIQRHYTGAIQYLADVVSPMLAHAQMLKKEHKGAKVVFIGPCISKKDEAEKYKGYVELVLTFDELDEWLKSENITIESNRGSSKEGRTRSFPVSGGIISSMDKDLGYHYMVVDGMENCINALENIERGEIDNCFIEMSACRGSCINGPPARRKSNNIVGAILAVNKNTGAKDFSVPMPEPEKLKKEFRFEGVHKIMPGGTAIEEILKKMGKTSIEHELNCGSCGYDTCRDKAVAVLNGKADLTMCLPYLKEKAESFSDAIIKNTPNGVIVLNEDLEIQQINNSAKRILNLSPSTDLLGSPVSRILDPIDYILALREGKNCYYKRKYFAEYKKYVDETIIYDKEYHVIIIIMRDVTEEEKIKALKNKQSEAAIEIADKVVEKQMRVVQEIALLLGETAAETKIALTKLKETMEDE | not soluble |
| MTEKLKNSKEVIAYIAECFPKCFTLEGEAKPLKIGIFQDLAERLNEDEKVSKTQLRAALRQYTSSWRYLHGVKPGAVRVDLDGNPCGELEEEHVEHAKATLAESKAKVQARRKEQAQKAREEGKAKAKPAANKKPQQPRRTNKPKVQKPTK | not soluble |

— the DeepSol protein solubility set
